Values of other authors, collected in patent publication US20240024386A1, “MICROBIOME MEDIATED INDUCTION OF IMMUNE TOLERANCE AND RESOLUTION OF INFLAMMATION” (INFINANT HEALTH, INC., priority 2020, published 2024).

Tested on: COVID-19
Conditions: triple therapy with lopinavir—ritonavir and ribavirin

B1: IFNβ-1b: interferon beta-1b, used in triple therapy with lopinavir—ritonavir and ribavirin (protein, UniProt P01574 22-187, looked up, variant C17S)
Interferon beta: MSYNLLGFLQRSSNFQSQKLLWQLNGRLEYCLKDRMNFDIPEEIKQLQQFQKEDAALTIYEMLQNIFAIFRQDSSSTGWNETIVENLLANVYHQINHLKTVLEEKLEKEDFTRGKLMSSLHLKRYYGRILHYLKAKEYSHCAWTIVRVEILRNFYFINRLTGYLRN
modifications: lacks Met1; non-glycosylated
notes: interferon beta-1b, used in triple therapy with lopinavir—ritonavir and ribavirin
period of viral shedding for COVID-19: shortened
